Laboratory results as given in patent publication US20240082401A1.

Columns and labels:
[1] = target: CS1-BCMA-41BB-CD3 CAR (bispecific CS1-BCMA chimeric antigen receptor), expressed on T cells; assay: FACS, donor #57 T cells, goat anti-mouse F(ab)2 staining
[2] = target: CS1-BCMA-41BB-CD3 CAR (bispecific CS1-BCMA chimeric antigen receptor), expressed on T cells; assay: FACS of CAR-transduced T cells stained with biotinylated goat anti-mouse F(ab)2 and PE-streptavidin
[3] = target: monospecific CS1 CAR, expressed on T cells; assay: FACS, donor #57 CS1 CAR-T cells; detection reagent not named in the sentence (taken as anti-mouse F(ab)2)
[4] = target: BCMA-41BB-CD3-CAR (monospecific BCMA CAR), expressed on T cells; assay: FACS, donor #57 single BCMA CAR-T cells, goat anti-mouse F(ab)2 staining
[5] = target: CS1-BCMA-41BB-CD3 CAR (bispecific CS1-BCMA chimeric antigen receptor), expressed on T cells; assay: FACS, donor #890 T cells, goat anti-mouse F(ab)2 staining

Chain of CS1-BCMA-41BB-CD3 CAR (bispecific CS1-BCMA chimeric antigen receptor), expressed on T cells (chain, as listed by the source mutant): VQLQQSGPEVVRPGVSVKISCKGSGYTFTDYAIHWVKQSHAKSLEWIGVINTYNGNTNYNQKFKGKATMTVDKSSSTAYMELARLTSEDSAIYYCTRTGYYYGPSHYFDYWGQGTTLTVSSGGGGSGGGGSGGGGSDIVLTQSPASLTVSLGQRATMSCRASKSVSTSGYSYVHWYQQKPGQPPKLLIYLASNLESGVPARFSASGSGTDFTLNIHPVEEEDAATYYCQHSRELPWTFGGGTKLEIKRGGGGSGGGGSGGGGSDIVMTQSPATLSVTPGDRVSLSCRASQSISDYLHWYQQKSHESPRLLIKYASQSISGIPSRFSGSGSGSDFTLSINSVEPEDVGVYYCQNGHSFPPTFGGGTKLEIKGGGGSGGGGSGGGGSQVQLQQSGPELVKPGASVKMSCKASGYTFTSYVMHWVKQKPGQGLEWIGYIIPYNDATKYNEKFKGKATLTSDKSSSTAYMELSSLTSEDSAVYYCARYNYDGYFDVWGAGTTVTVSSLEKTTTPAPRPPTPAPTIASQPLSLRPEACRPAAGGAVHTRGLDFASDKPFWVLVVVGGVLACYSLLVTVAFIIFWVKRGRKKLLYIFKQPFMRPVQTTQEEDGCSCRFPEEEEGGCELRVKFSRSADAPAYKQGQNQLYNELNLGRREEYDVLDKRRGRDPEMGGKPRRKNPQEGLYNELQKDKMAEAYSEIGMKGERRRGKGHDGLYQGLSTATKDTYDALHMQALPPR

Biotin-labeled polyclonal goat anti-mouse F(ab)2 antibody (Life Technologies)
proportion of CAR cells detected [1]: > 70%
percentage of CAR+ cells detected [2]: > 95%
percentage of CAR+ cells [3]: 68%
proportion of CAR cells detected [4]: 57%
proportion of CAR+ cells detected [5]: 81%
